The target of assay [1] is Anti-roIFNT antibody. Briefly: competitive RIA, unlabelled IFNT displacing 125I-roIFNT from the antibody; less dilute primary antibody.
For assay [2], the target named is Anti-roIFNT antibody. As to the kind of experiment: competitive RIA, unlabelled IFNT displacing 125I-roIFNT from the antibody; primary antibody at 1:60,000.

As to “recombinant ovine IFNT (roIFNT) (ligand)”, the amount of ligand required to displace 50% binding with Anti-roIFNT antibody [1] is 1.5 ng; with Anti-roIFNT antibody [2] it was 0.4 ng.

The record behind these values is patent US20150114310A1.
